15 molecules from patent US20110190196A1 (University of California, published 2011) can be followed below.

Read-outs that look alike come from different tables or passages of the source.

Common to all, as to experiment: cell-based or functional assay
Assay [1] has as its target T1, ATP-binding cassette transporter A1 (ABCA1) (UniProt P41233 1-2261, limits assumed).
In assay [2] the target is T1, ATP-binding cassette transporter A1 …. This is another data set of the same source.
For assay [3] the target is unchanged. The source holds these as a separate data set.
The target is the same in assay [4]. This is another data set of the same source.
Assay [5] shares this target. This is another data set of the same source.
For assay [6] the target is unchanged. The source holds these as a separate data set.
Assay [7] has the same target. The source holds these as a separate data set.
Assay [8] has the same target. This is another data set of the same source.
For assay [9] the target is unchanged. This is another data set of the same source.
Assay [10] shares this target. This is another data set of the same source.

T1 sequence (P41233 whole entry): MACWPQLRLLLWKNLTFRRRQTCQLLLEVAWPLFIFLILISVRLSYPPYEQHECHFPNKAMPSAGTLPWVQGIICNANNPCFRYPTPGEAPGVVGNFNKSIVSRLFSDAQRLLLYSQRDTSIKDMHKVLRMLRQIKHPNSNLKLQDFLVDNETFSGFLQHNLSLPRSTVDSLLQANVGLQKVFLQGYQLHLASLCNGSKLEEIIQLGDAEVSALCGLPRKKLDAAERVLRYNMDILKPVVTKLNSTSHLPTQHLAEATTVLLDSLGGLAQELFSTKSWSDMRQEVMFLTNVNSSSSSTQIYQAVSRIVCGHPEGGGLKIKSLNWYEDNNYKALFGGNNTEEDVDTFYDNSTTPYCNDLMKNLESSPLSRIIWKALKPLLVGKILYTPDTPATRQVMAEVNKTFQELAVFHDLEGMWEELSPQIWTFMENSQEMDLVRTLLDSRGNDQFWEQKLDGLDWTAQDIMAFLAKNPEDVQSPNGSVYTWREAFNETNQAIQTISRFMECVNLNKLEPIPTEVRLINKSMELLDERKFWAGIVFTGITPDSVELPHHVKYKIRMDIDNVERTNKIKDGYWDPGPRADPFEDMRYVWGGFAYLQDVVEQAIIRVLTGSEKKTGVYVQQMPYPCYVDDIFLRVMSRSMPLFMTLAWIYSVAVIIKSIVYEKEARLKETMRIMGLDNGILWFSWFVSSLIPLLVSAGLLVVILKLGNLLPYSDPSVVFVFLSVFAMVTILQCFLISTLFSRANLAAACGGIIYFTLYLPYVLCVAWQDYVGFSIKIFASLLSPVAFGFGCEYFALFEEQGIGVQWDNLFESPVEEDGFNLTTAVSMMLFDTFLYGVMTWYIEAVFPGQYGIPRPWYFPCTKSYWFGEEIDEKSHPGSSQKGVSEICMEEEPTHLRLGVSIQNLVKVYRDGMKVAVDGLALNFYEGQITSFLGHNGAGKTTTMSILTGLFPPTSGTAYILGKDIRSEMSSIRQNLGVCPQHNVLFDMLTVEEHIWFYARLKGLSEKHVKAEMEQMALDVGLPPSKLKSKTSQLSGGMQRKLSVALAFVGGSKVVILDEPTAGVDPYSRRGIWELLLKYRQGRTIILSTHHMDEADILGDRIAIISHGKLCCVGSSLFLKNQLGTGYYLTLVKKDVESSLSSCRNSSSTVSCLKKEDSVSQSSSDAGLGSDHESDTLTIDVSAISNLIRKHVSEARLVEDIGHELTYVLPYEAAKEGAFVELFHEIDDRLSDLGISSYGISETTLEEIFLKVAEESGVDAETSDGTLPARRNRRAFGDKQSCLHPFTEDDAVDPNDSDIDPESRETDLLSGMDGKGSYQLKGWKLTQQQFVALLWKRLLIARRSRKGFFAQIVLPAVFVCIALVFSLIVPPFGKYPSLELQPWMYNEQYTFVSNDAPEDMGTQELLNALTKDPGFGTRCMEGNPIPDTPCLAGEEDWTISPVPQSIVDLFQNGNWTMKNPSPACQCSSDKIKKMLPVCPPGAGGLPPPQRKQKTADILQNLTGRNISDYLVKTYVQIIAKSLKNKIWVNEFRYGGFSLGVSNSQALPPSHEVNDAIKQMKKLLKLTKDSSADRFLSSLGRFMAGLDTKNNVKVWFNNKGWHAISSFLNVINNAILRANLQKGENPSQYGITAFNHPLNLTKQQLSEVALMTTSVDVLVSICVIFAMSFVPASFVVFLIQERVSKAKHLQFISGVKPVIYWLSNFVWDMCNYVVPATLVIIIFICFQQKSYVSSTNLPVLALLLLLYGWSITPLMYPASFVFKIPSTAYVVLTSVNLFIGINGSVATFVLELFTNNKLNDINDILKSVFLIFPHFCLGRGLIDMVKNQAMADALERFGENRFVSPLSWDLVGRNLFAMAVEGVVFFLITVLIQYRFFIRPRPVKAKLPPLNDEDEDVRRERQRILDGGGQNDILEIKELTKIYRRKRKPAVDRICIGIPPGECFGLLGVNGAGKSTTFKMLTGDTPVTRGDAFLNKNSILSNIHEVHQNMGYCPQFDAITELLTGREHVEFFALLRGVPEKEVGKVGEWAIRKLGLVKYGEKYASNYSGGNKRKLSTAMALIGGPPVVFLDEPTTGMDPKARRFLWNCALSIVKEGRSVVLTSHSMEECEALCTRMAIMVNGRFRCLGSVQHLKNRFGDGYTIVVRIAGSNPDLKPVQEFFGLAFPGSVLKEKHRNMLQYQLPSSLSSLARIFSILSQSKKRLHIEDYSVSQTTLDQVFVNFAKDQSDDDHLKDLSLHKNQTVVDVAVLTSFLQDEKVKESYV

For the molecule “lipid-free apolipoprotein(apo)A-I (from UniProt P02647 19-267) (ligand)”, in [1], the Km of cholesterol efflux stimulation, mass basis (4 h efflux data, cAMP-treated J774 cells) stood at 3.4 µg/mL and the Km of cholesterol efflux stimulation, molar basis is 0.12.
On to ELRERLEAWFELFREFLERF [N1154-1], for which, in [2], the “% cholesterol efflux/8 hours, No cAMP” value came to 1.85% and the “% cholesterol efflux/8 hours, Plus cAMP” value is 5.2%. Also, in assay [3], the “% cholesterol efflux/4 hours at 0.1 µg/ml” value came out at 0.1%, the “% cholesterol efflux/4 hours at 0.3 µg/ml” value was determined as 0.41%, the “% cholesterol efflux/4 hours at 1.0 µg/ml” value worked out at 2.06% and the “% cholesterol efflux/4 hours at 3.0 µg/ml” value was 5.11%. In [3], the “% cholesterol efflux/4 hours at 10 µg/ml” value was found to be 4.44% and the “% cholesterol efflux/4 hours at 30 µg/ml” value stood at 3.67%.
With ELRDRLEAWFDLFREFLERF [N1154-4], in [2], the “% cholesterol efflux/8 hours, No cAMP” value came to 2.59% and the “% cholesterol efflux/8 hours, Plus cAMP” value was 11.4%. In addition, in assay [3], the “% cholesterol efflux/4 hours at 0.1 µg/ml” value stood at 0%, the “% cholesterol efflux/4 hours at 0.3 µg/ml” value was 1.3%, the “% cholesterol efflux/4 hours at 1.0 µg/ml” value stood at 3.51% and the “% cholesterol efflux/4 hours at 3.0 µg/ml” value worked out at 4.14%. Besides, in assay [3], the “% cholesterol efflux/4 hours at 10 µg/ml” value is 5.02% and the “% cholesterol efflux/4 hours at 30 µg/ml” value amounted to 3.65%.
As to ELREKLEAWLELLRELLERL [N1154-6], in assay [4], the “% cholesterol efflux/4 hours at 0.1 µg/ml” value was found to be 0.18%, the “% cholesterol efflux/4 hours at 0.3 µg/ml” value was 0.46%, the “% cholesterol efflux/4 hours at 1.0 µg/ml” value is 2.51% and the “% cholesterol efflux/4 hours at 3.0 µg/ml” value was 4.73%. Also, in assay [4], the “% cholesterol efflux/4 hours at 10 µg/ml” value turned out to be 3.56% and the “% cholesterol efflux/4 hours at 30 µg/ml” value amounted to 2.71%. Further, in assay [5], the “% cholesterol efflux/8 hours, No cAMP” value is 1.17% and the “% cholesterol efflux/8 hours, Plus cAMP” value was determined as 4.29%.
As to DLRDKLDAWLDLLRDLLDRL [N1154-9], in [4], the “% cholesterol efflux/4 hours at 0.1 µg/ml” value was determined as 0.08%, the “% cholesterol efflux/4 hours at 0.3 µg/ml” value amounted to 0.43%, the “% cholesterol efflux/4 hours at 1.0 µg/ml” value was determined as 1.81% and the “% cholesterol efflux/4 hours at 3.0 µg/ml” value was determined as 3.48%. For the same molecule, in assay [4], the “% cholesterol efflux/4 hours at 10 µg/ml” value was 3.31% and the “% cholesterol efflux/4 hours at 30 µg/ml” value came out at 4.35%. For the same molecule, in assay [5], the “% cholesterol efflux/8 hours, No cAMP” value turned out to be 1.81% and the “% cholesterol efflux/8 hours, Plus cAMP” value is 4.83%.
As to ELRERLEAWLELLRELLERL [N1154-7], in assay [4], the “% cholesterol efflux/4 hours at 0.1 µg/ml” value was found to be 0.23%, the “% cholesterol efflux/4 hours at 0.3 µg/ml” value was 0.83%, the “% cholesterol efflux/4 hours at 1.0 µg/ml” value is 2.26% and the “% cholesterol efflux/4 hours at 3.0 µg/ml” value was found to be 4.14%. Besides, in [4], the “% cholesterol efflux/4 hours at 10 µg/ml” value came out at 3.24% and the “% cholesterol efflux/4 hours at 30 µg/ml” value was found to be 3.28%. For the same molecule, in [5], the “% cholesterol efflux/8 hours, No cAMP” value came to 1.23% and the “% cholesterol efflux/8 hours, Plus cAMP” value stood at 4.14%.
On to DLRDRLDAWFDLFRDFLDRF [N1154-5], for which, in assay [2], the “% cholesterol efflux/8 hours, No cAMP” value is 3.06% and the “% cholesterol efflux/8 hours, Plus cAMP” value was 9.88%. In assay [3], the “% cholesterol efflux/4 hours at 0.1 µg/ml” value came out at 0%, the “% cholesterol efflux/4 hours at 0.3 µg/ml” value was found to be 1.92%, the “% cholesterol efflux/4 hours at 1.0 µg/ml” value is 2.77% and the “% cholesterol efflux/4 hours at 3.0 µg/ml” value was found to be 5.28%. In addition, in assay [3], the “% cholesterol efflux/4 hours at 10 µg/ml” value was 5.29% and the “% cholesterol efflux/4 hours at 30 µg/ml” value is 3.53%.
Take ELRDRLEAWLDLLRELLERL [N1154-10]: in assay [4], the “% cholesterol efflux/4 hours at 0.1 µg/ml” value came out at 0.58%, the “% cholesterol efflux/4 hours at 0.3 µg/ml” value amounted to 1%, the “% cholesterol efflux/4 hours at 1.0 µg/ml” value came out at 2.12% and the “% cholesterol efflux/4 hours at 3.0 µg/ml” value is 5.25%. Also, in assay [4], the “% cholesterol efflux/4 hours at 10 µg/ml” value was 4.15% and the “% cholesterol efflux/4 hours at 30 µg/ml” value amounted to 3.7%. Besides, in [5], the “% cholesterol efflux/8 hours, No cAMP” value turned out to be 2.66% and the “% cholesterol efflux/8 hours, Plus cAMP” value came out at 8.25%.
As to DLRDKLDAWFDLFRDFLDRF [N1154-3], in assay [2], the “% cholesterol efflux/8 hours, No cAMP” value was 1.61% and the “% cholesterol efflux/8 hours, Plus cAMP” value was 3.29%. Besides, in [3], the “% cholesterol efflux/4 hours at 0.1 µg/ml” value came out at 0%, the “% cholesterol efflux/4 hours at 0.3 µg/ml” value came out at 0.19%, the “% cholesterol efflux/4 hours at 1.0 µg/ml” value worked out at 1.31% and the “% cholesterol efflux/4 hours at 3.0 µg/ml” value was determined as 2.66%. Moreover, in assay [3], the “% cholesterol efflux/4 hours at 10 µg/ml” value stood at 2.12% and the “% cholesterol efflux/4 hours at 30 µg/ml” value turned out to be 2.21%.
For ELREKLEAWFELFREFLERF [SEQ ID NO:2 peptide], in [6], the “% cholesterol efflux/4 hours at 0.1 µg/ml” value worked out at 0.15%, the “% cholesterol efflux/4 hours at 0.3 µg/ml” value was determined as 0.52%, the “% cholesterol efflux/4 hours at 1.0 µg/ml” value turned out to be 1.72% and the “% cholesterol efflux/4 hours at 3.0 µg/ml” value came out at 4.6%. For the same molecule, in [6], the “% cholesterol efflux/4 hours at 10 µg/ml” value is 3.62% and the “% cholesterol efflux/4 hours at 30 µg/ml” value was 3.66%. In assay [7], the “% cholesterol efflux/8 hours, +cAMP” value is 5.26% and the “% cholesterol efflux/8 hours, -cAMP” value amounted to 2.29%. The “efficiency of cholesterol efflux against apoA-I, mass basis” value in assay [8] was around 5 fold.
ELRDKLEAWLDLLRELLERL [N1154-8]: in [4], the “% cholesterol efflux/4 hours at 0.1 µg/ml” value came to 0%, the “% cholesterol efflux/4 hours at 0.3 µg/ml” value came out at 0.48%, the “% cholesterol efflux/4 hours at 1.0 µg/ml” value was found to be 1.51% and the “% cholesterol efflux/4 hours at 3.0 µg/ml” value was 3.41%. In assay [4], the “% cholesterol efflux/4 hours at 10 µg/ml” value worked out at 2.99% and the “% cholesterol efflux/4 hours at 30 µg/ml” value worked out at 3.02%. Moreover, in [5], the “% cholesterol efflux/8 hours, No cAMP” value was found to be 1.31% and the “% cholesterol efflux/8 hours, Plus cAMP” value stood at 4.38%.
For the molecule ELRDKLEAWFDLFREFLERF [N1154-2], in [2], the “% cholesterol efflux/8 hours, No cAMP” value stood at 1.47% and the “% cholesterol efflux/8 hours, Plus cAMP” value turned out to be 3%. Further, in assay [3], the “% cholesterol efflux/4 hours at 0.1 µg/ml” value was 0.03%, the “% cholesterol efflux/4 hours at 0.3 µg/ml” value amounted to 0.51%, the “% cholesterol efflux/4 hours at 1.0 µg/ml” value is 2.17% and the “% cholesterol efflux/4 hours at 3.0 µg/ml” value was determined as 2.59%. In assay [3], the “% cholesterol efflux/4 hours at 10 µg/ml” value amounted to 2.14% and the “% cholesterol efflux/4 hours at 30 µg/ml” value is 1.66%.
As to ELREKLEAWFELFEEFFARFKS [N356-3], in [9], the “% cholesterol efflux/4 hours at 0.1 µg/ml” value turned out to be 0%, the “% cholesterol efflux/4 hours at 0.3 µg/ml” value stood at 0.57%, the “% cholesterol efflux/4 hours at 1.0 µg/ml” value turned out to be 1.2% and the “% cholesterol efflux/4 hours at 3.0 µg/ml” value was found to be 4.34%. Moreover, in assay [9], the “% cholesterol efflux/4 hours at 10 µg/ml” value stood at 5.13% and the “% cholesterol efflux/4 hours at 30 µg/ml” value worked out at 3.24%. In addition, in assay [10], the “% cholesterol efflux/8 hours, No cAMP” value was determined as 0.82% and the “% cholesterol efflux/8 hours, Plus cAMP” value stood at 3.94%.
Turning to ELREKLEAWRELFEEFFARFKS [N356-2], in [9], the “% cholesterol efflux/4 hours at 0.1 µg/ml” value amounted to 0%, the “% cholesterol efflux/4 hours at 0.3 µg/ml” value came to 0%, the “% cholesterol efflux/4 hours at 1.0 µg/ml” value stood at 0.02% and the “% cholesterol efflux/4 hours at 3.0 µg/ml” value is 1.3%. In addition, in [9], the “% cholesterol efflux/4 hours at 10 µg/ml” value came to 5.7% and the “% cholesterol efflux/4 hours at 30 µg/ml” value worked out at 5.92%. Also, in assay [10], the “% cholesterol efflux/8 hours, No cAMP” value turned out to be 1.27% and the “% cholesterol efflux/8 hours, Plus cAMP” value was found to be 6.52%.
Take DLRDRLDAWLDLLRDLLDRL [N1154-11]: in assay [4], the “% cholesterol efflux/4 hours at 0.1 µg/ml” value was 0.58%, the “% cholesterol efflux/4 hours at 0.3 µg/ml” value worked out at 1.34%, the “% cholesterol efflux/4 hours at 1.0 µg/ml” value turned out to be 2.56% and the “% cholesterol efflux/4 hours at 3.0 µg/ml” value came out at 4.84%. In addition, in assay [4], the “% cholesterol efflux/4 hours at 10 µg/ml” value came out at 4.17% and the “% cholesterol efflux/4 hours at 30 µg/ml” value came to 5.55%. In [5], the “% cholesterol efflux/8 hours, No cAMP” value is 4.2% and the “% cholesterol efflux/8 hours, Plus cAMP” value came out at 9.04%.
